B1: BTBD10 (parent)
chain: FVYENAKEGARNIRTSERVTLIVD

Variants of: B1
Test: protein stability index of a GFP-peptide fusion (GPS, HEK-293T) (PSI 1-6); higher = more stable
Settings: c terminus: a fixed tail appended
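Also: lentivirally expressed fusions sorted by FACS into six bins by GFP to DsRed ratio, PSI derived from sequencing read proportions per bin multiplied by bin number.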

In order of falling protein stability index:
1. FVYENAKEGARNIRTSLRVTLIVD [E17L]  3.89
2. FVYENAKEGARNIRTSGRVTLIVD [E17G]  3.65
3. FVYENAKEGARNIRTSVRVTLIVD [E17V]  3.52
4. FVYENAKEGARNIRTSCRVTLIVD [E17C]  3.19
5. FVYENAKEGARNIRTSFRVTLIVD [E17F]  3.19
6. FVYENAKEGARNIRTSERVPLIVD [T20P]  3.04
7. FVYENAKEGARNIRTSERETLIVD [V19E]  2.86
8. FVYENAKEGARNIRTSMRVTLIVD [E17M]  2.82
9. FVYENAKEGARNIRTSERVCLIVD [T20C]  2.74
10. FVYENAKEGARNIRTSERPTLIVD [V19P]  2.73
11. FVYENAKEGARNIRTNERVTLIVD [S16N]  2.64
12. FVYENAKEGARNIRTSERVFLIVD [T20F]  2.63
13. FVYENAKEGARNIRTSEDVTLIVD [R18D]  2.61
14. FVYENAKEGARNIRTSERQTLIVD [V19Q]  2.6
15. FVYENAKEGARNIRTEERVTLIVD [S16E]  2.57
16. FVYENAKEGARNIRTSERVNLIVD [T20N]  2.56
17. FVYENAKEGARNIRTSERCTLIVD [V19C]  2.49
18. FVYENAKEGARNIRTSERDTLIVD [V19D]  2.48
19. FVYENAKEGARNIRTSERATLIVD [V19A]  2.45
20. FVYENAKEGARNIRTYERVTLIVD [S16Y]  2.44
21. FVYENAKEGARNIRTSERNTLIVD [V19N]  2.43
22. FVYENAKEGARNIRTGERVTLIVD [S16G]  2.41
23. FVYENAKEGARNIRTSERTTLIVD [V19T]  2.39
24. FVYENAKEGARNIRSSERVTLIVD [T15S]  2.38
25. FVYENAKEGARNIRTIERVTLIVD [S16I]  2.38
26. FVYENAKEGARNIRTSERHTLIVD [V19H]  2.35
27. FVYENAKEGARNIRTSERYTLIVD [V19Y]  2.35
28. FVYENAKEGARNIRTRERVTLIVD [S16R]  2.34
29. FVYENAKEGARNIRTSERRTLIVD [V19R]  2.34
30. FVYENAKEGARNIRTDERVTLIVD [S16D]  2.33
31. FVYENAKEGARNIRTPERVTLIVD [S16P]  2.33
32. FVYENAKEGARNIRTSEGVTLIVD [R18G]  2.31
33. FVYENAKEGARNIRTSEPVTLIVD [R18P]  2.31
34. FVYENAKEGARNIRTSEEVTLIVD [R18E]  2.29
35. FVYENAKEGARNIRTMERVTLIVD [S16M]  2.28
36. FVYENAKEGARNIRTSEWVTLIVD [R18W]  2.27
37. FVYENAKEGARNIRTSERFTLIVD [V19F]  2.27
38. FVYENAKEGARNIRTSIRVTLIVD [E17I]  2.25
39. FVYENAKEGARNIRTSYRVTLIVD [E17Y]  2.24
40. FVYENAKEGARNIRTSNRVTLIVD [E17N]  2.22
41. FVYENAKEGARNIRTSERGTLIVD [V19G]  2.21
42. FVYENAKEGARNIRTQERVTLIVD [S16Q]  2.18
43. FVYENAKEGARNIRTSKRVTLIVD [E17K]  2.18
44. FVYENAKEGARNIRTSERVQLIVD [T20Q]  2.18
45. FVYENAKEGARNIRTSARVTLIVD [E17A]  2.17
46. FVYENAKEGARNIRTSEFVTLIVD [R18F]  2.16
47. FVYENAKEGARNIRTWERVTLIVD [S16W]  2.1
48. FVYENAKEGARNIRTSEKVTLIVD [R18K]  2.1
49. FVYENAKEGARNIRTKERVTLIVD [S16K]  2.09
50. FVYENAKEGARNIRTSENVTLIVD [R18N]  2.07
51. FVYENAKEGARNIRTSERVKLIVD [T20K]  2.07
52. FVYENAKEGARNIRRSERVTLIVD [T15R]  2.06
53. FVYENAKEGARNIRTSERVELIVD [T20E]  2.06
54. FVYENAKEGARNIRTSERVHLIVD [T20H]  2.06
55. FVYENAKEGARNIRTCERVTLIVD [S16C]  2.02
56. FVYENAKEGARNIRTSERLTLIVD [V19L]  2
57. FVYENAKEGARNIRTSERSTLIVD [V19S]  2
58. FVYENAKEGARNIRTAERVTLIVD [S16A]  1.99
59. FVYENAKEGARNIRTSEHVTLIVD [R18H]  1.98
60. FVYENAKEGARNIRTSETVTLIVD [R18T]  1.98
61. FVYENAKEGARNIRTSEMVTLIVD [R18M]  1.97
62. FVYENAKEGARNIRTSERVDLIVD [T20D]  1.92
63. FVYENAKEGARNIRTSSRVTLIVD [E17S]  1.91
64. FVYENAKEGARNIRTSERKTLIVD [V19K]  1.91
65. FVYENAKEGARNIRTTERVTLIVD [S16T]  1.89
66. FVYENAKEGARNIRTSESVTLIVD [R18S]  1.89
67. FVYENAKEGARNIRTSQRVTLIVD [E17Q]  1.87
68. FVYENAKEGARNIRTSERVILIVD [T20I]  1.84
69. FVYENAKEGARNIRTSECVTLIVD [R18C]  1.83
70. FVYENAKEGARNIRTSELVTLIVD [R18L]  1.83
71. FVYENAKEGARNIRTSERVMLIVD [T20M]  1.82
72. FVYENAKEGARNIRTSERVRLIVD [T20R]  1.81
73. FVYENAKEGARNIRTSHRVTLIVD [E17H]  1.8
74. FVYENAKEGARNIRTSEQVTLIVD [R18Q]  1.79
75. FVYENAKEGARNIRTHERVTLIVD [S16H]  1.78
76. FVYENAKEGARNIRTSEAVTLIVD [R18A]  1.77
77. FVYENAKEGARNIRVSERVTLIVD [T15V]  1.75
78. FVYENAKEGARNIRTSDRVTLIVD [E17D]  1.74
79. FVYENAKEGARNIRTSERVALIVD [T20A]  1.73
80. FVYENAKEGARNIRTSEVVTLIVD [R18V]  1.69
81. FVYENAKEGARNIRTSEIVTLIVD [R18I]  1.66
82. FVYENAKEGARNIRTSERMTLIVD [V19M]  1.62
83. FVYENAKEGARNIRTSERITLIVD [V19I]  1.61
84. FVYENAKEGARNIRTSERVGLIVD [T20G]  1.59
85. FVYENAKEGARNIRTFERVTLIVD [S16F]  1.58
86. FVYENAKEGARNIRTSPRVTLIVD [E17P]  1.54
87. FVYENAKEGARNIRTSERWTLIVD [V19W]  1.53
88. FVYENAKEGARNIRTSERVLLIVD [T20L]  1.48
89. FVYENAKEGARNIRTSRRVTLIVD [E17R]  1.46
90. FVYENAKEGARNIRTSEYVTLIVD [R18Y]  1.44
91. FVYENAKEGARNIRYSERVTLIVD [T15Y]  1.39
92. FVYENAKEGARNIRTLERVTLIVD [S16L]  1.39
93. FVYENAKEGARNIRTVERVTLIVD [S16V]  1.34
94. FVYENAKEGARNIRTSTRVTLIVD [E17T]  1.23

From the supplement of paper PMC10567573
